Assay results as given in the RNAGym collection of RNA variant scans (doi:10.1073/pnas.2313332121).

B1: TPR t1 (parent)
chain: GACCAAUCUGCCCUCAGAGCUCGAGAACAUCUUCGGAUGCAGAGGAGGCAGGCUUCGGUGGCGCGAUAGCGCCAACGUCCUCAACCUCCAAUGCAUCCCACCACAUGAUGAUGCCUGAAGAGCCUUGGUUUUUUG

Variants of: B1
Assay: polymerase ribozyme fitness, log enrichment relative to wild type (log ratio); higher = more active; in vitro selection for triplet polymerase activity
In short: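 In triplicate, a single round of in vitro selection was run on each mutant library, PCR-built and transcribed, covering one subunit of a heterodimeric triplet polymerase ribozyme. Frozen incubation at −7 °C followed annealing with a biotinylated primer, partner subunit and triplets, and extended constructs were then gel-excised, streptavidin-captured and taken through RT-PCR. Fitness is the logarithm of genotype enrichment over wild-type enrichment, from inverse-variance-weighted replicate averages of Illumina-sequenced inputs and outputs. […] only genotypes with ≥10 input reads and ≥1 read per output were kept.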

First: G77C U87A G93C A105U C115A
Second: U78G C85A G120A
The “polymerase ribozyme fitness (log ratio)” value of the first is lower: -5.31 for the first, -0.262 for the second.

Going from C85U C114G to A83U G120U U129C, the “polymerase ribozyme fitness (log ratio)” value rises from -3.53 to -1.36.

Going from A83U G128C to C79A U81C C89U G93U G120C C124U, the “polymerase ribozyme fitness (log ratio)” value falls from -2.32 to -3.62.

Compared with C86U C94A U106G, G77A U78C A105C A121C is higher in “polymerase ribozyme fitness (log ratio)” value: -3.23 for the first, -1.42 for the second.

First: C82A G127A
Second: U81G C88U
The “polymerase ribozyme fitness (log ratio)” value of the first is higher: -2.18 for the first, -4.05 for the second.

G77C C102U and G77A A83C C86U U116A G120C U125A are within 0.2 log units of each other in “polymerase ribozyme fitness (log ratio)” value: -2.02 for the first, -1.96 for the second.

First: A84U C124A
Second: U78G C94G
The “polymerase ribozyme fitness (log ratio)” value of the first is higher: 1.73 for the first, -0.85 for the second.

First: C80U G117A U133G
Second: U78C U81C
The “polymerase ribozyme fitness (log ratio)” value of the first is lower: -1.17 for the first, -0.434 for the second.

Going from U78C U81G to G77C A95U, the “polymerase ribozyme fitness (log ratio)” value rises from -3.03 to -0.809.

Compared with C80U U106C, C80G is lower in “polymerase ribozyme fitness (log ratio)” value: -0.325 for the first, -5.78 for the second.

First: C80A
Second: C80U
The “polymerase ribozyme fitness (log ratio)” value of the first is lower: -2.86 for the first, -0.463 for the second.

C86U A100U and U78C U130G are within 0.2 log units of each other in “polymerase ribozyme fitness (log ratio)” value: -0.74 for the first, -0.922 for the second.

First: U78C C80U C99U A121G
Second: C79U U109G
The “polymerase ribozyme fitness (log ratio)” value of the first is higher: -3.12 for the first, -5.09 for the second.

U78G and U78C are within 0.2 log units of each other in “polymerase ribozyme fitness (log ratio)” value: -0.246 for the first, -0.247 for the second.

First: U78A
Second: C79U G120U
The “polymerase ribozyme fitness (log ratio)” value of the first is lower: -0.254 for the first, 0.0692 for the second.

First: G77A C82G
Second: C80U A103C
The “polymerase ribozyme fitness (log ratio)” value of the first is higher: -1.13 for the first, -6.57 for the second.

Going from C86A G135U to G77U U106C C124A, the “polymerase ribozyme fitness (log ratio)” value falls from -1.3 to -3.43.

Compared with G77U U96A, C80U C101U A121C is higher in “polymerase ribozyme fitness (log ratio)” value: -1.04 for the first, 1.19 for the second.

Going from C79A G93U to C82A G122A, the “polymerase ribozyme fitness (log ratio)” value rises from -2.82 to -0.963.

Going from C79A C85A A119U to U78C U81G G120C, the “polymerase ribozyme fitness (log ratio)” value rises from -5.64 to -1.18.

Going from C85G C124G U126G to C86U C114A, the “polymerase ribozyme fitness (log ratio)” value falls from -0.338 to -1.71.

First: U78C A111C
Second: A83C G135U
The “polymerase ribozyme fitness (log ratio)” value of the first is higher: 0.402 for the first, -0.881 for the second.

First: C82G A95C G110U
Second: U78C U131C
The “polymerase ribozyme fitness (log ratio)” value of the first is lower: -3.96 for the first, -0.936 for the second.

Going from U78C G110U to U78C C101A, the “polymerase ribozyme fitness (log ratio)” value rises from -1.27 to -0.679.

First: A83C C104A
Second: C79G C124G U125A
The “polymerase ribozyme fitness (log ratio)” value of the first is higher: -1.32 for the first, -4.24 for the second.

C79U C99A U112C and A83U G93C C104U U116G G122A are within 0.2 log units of each other in “polymerase ribozyme fitness (log ratio)” value: -4.18 for the first, -4.03 for the second.

Going from C85U C97A C115G to C85U U116A C123U U129A, the “polymerase ribozyme fitness (log ratio)” value rises from -5.83 to -5.12.

Going from A84G G93U C101A to G77A C82A U109A, the “polymerase ribozyme fitness (log ratio)” value falls from -3.07 to -4.87.

Going from U78C A84C U96G U116G to U81G U125A U131G, the “polymerase ribozyme fitness (log ratio)” value falls from -3.6 to -4.64.

Compared with C86U G110A, U78C A103G U109A C114A A119C is lower in “polymerase ribozyme fitness (log ratio)” value: -2.37 for the first, -6.28 for the second.

Going from C80U G93C to U78A G120A, the “polymerase ribozyme fitness (log ratio)” value rises from -1.44 to 0.814.

Going from C80A C86G to C82G C97A C124A U125G, the “polymerase ribozyme fitness (log ratio)” value falls from -5.2 to -5.83.

A83C C114G and C82U C94U C114A are within 0.2 log units of each other in “polymerase ribozyme fitness (log ratio)” value: -2.24 for the first, -2.17 for the second.

Going from C80G U87G C88A U112A to C79U G113A C123U U129C, the “polymerase ribozyme fitness (log ratio)” value rises from -4.77 to -3.48.

Compared with C80A U112A, U78C C124G is higher in “polymerase ribozyme fitness (log ratio)” value: -2.64 for the first, 1.08 for the second.

Compared with U78G C82G C99A U112G G128U, C79U C94A C102A G120C is higher in “polymerase ribozyme fitness (log ratio)” value: -6.81 for the first, -2.46 for the second.

Compared with U78C G113A G135U, A84U U133A is higher in “polymerase ribozyme fitness (log ratio)” value: -2.01 for the first, -0.823 for the second.

Compared with A84C U116G, C82U G93C G117U is lower in “polymerase ribozyme fitness (log ratio)” value: -1.83 for the first, -2.53 for the second.

First: C82A C115A
Second: C82A U112G
The “polymerase ribozyme fitness (log ratio)” value of the first is lower: -1.19 for the first, 0.0724 for the second.

First: C85G G127C
Second: U78A A111C
The “polymerase ribozyme fitness (log ratio)” value of the first is lower: -2.56 for the first, -0.127 for the second.

Going from A83C C115G to A84C C123U U133G, the “polymerase ribozyme fitness (log ratio)” value rises from -1.92 to 0.656.

For U81G C94U A121G, the “polymerase ribozyme fitness (log ratio)” value was -2.71.
